Changes are numbered by the printed parent chain.
B1: MLC019: unconjugated GLP-1/GDF15 fusion protein, linker of at least 80 residues (protein)
chain: HGEGTFTSDVSSYLEEQAAKEFIAWLVRGGGGQEPGAQPGQEPGAQPGQEPGAQPGQEPGAQPGQEPGAQPGQEPGAQPGAQPGAQPGAQPGAQPGAQPGAQPGAQPGAQPARQGDHCPLGPGRCCRLHTVRASLEDLGWADWVLSPREVQVTMCIGACPSQFRAANLHAQIKTSLHRLRPDTVPAPCCVPASYNPMVLIQRTDTGVSLQTYDDLLARDCHCI
B2: MLC003: unconjugated GLP-1/GDF15 fusion protein (protein)
chain: HGEGTFTSDVSSYLEEQAAKEFIAWLVRGGGGQEPGQEPGQEPGQEPGQEPGQEPGQEPGQEPGAQPGAQPARQGDHCPLGPGRCCRLHTVRASLEDLGWADWVLSPREVQVTMCIGACPSQFRAANLHAQIKTSLHRLRPDTVPAPCCVPASYNPMVLIQRTDTGVSLQTYDDLLARDCHCI
B3: MLC023: unconjugated GLP-1/GDF15 fusion protein (protein)
chain: HGEGTFTSDVSSYLEEQAAKEFIAWLVRGGGGQEPGQEPGQEPARQGDHCPLGPGRCCRLHTVRASLEDLGWADWVLSPREVQVTMCIGACPSQFRAANLHAQIKTSLHRLKPDTVPAPCCVPASYNPMVLIQKTDTGVSLQTYDDLLAKDCHCI
B4: MLC100: unconjugated GLP-1/GDF15 fusion protein (protein)
chain: HGEGTFTSDVSSYLEEQAAKEFIAWLVRGGGGQEPARQGDHCPLGPGRCCRLHTVRASLEDLGWADWVLSPREVQVTMCIGACPSQFRAANLHAQIKTSLHRLKPDTVPAPCCVPASYNPMVLIQKTDTGVSLQTYDDLLAKDCHCI
B5: MLC102: unconjugated GLP-1/GDF15 fusion protein (protein)
chain: HGEGTFTSDVSSYLEEQAAKEFIAWLVRGGGGQEPGAQPGQEPGAQPGQEPGAQPGQEPGAQPGQEPGAQPGQEPGAQPGAQPGAQPGAQPGAQPGAQPGAQPGAQPGAQPGAQPGAQPGAQPGAQPGAQPGAQPGAQPGAQPGAQPGAQPARQGDHCPLGPGRCCRLHTVRASLEDLGWADWVLSPREVQVTMCIGACPSQFRAANLHAQIKTSLHRLKPDTVPAPCCVPASYNPMVLIQKTDTGVSLQTYDDLLAKDCHCI
B6: MLC020: unconjugated GLP-1/GDF15 fusion protein (protein)
chain: B2 chain with R140K, R162K, R178K

How the values were obtained:
[1] = Body weight and food intake in C57BL/6 mice, unconjugated fusion proteins, 30 nmol/kg daily 10 days; format: in vivo; settings: for Body weight reduction at 30 nmol/kg (% reduction compared to vehicle)(Day11) / Cumulative food intake reduction at 30 nmol/kg (% reduction compared to vehicle)(Day11): C57 mice, 30 nmol/kg daily, Day11, unconjugated fusion proteins
Protocol: 10 week old male C57BL/6 mice were injected everyday subcutaneously with 15 nmol/kg of the fusion protein conjugates (i.e., MLC002, MLC 004, MLC 005, MLC 006, MLC 007, MLC 008, and MLC 009) for 14 days. Food intake and body weight were measured daily and five animals were used for each treatment group. Body weight (BW) was monitored for each individual animal, but food intake for each group animals was measured together. Day 1 and Day 14 are first day and last day of molecule dosage. % BW loss=100*(BW on Day n-BW on Day 1)/(BW on Day 1). Cumulative food intake on Day n represents sum of food intake from Day 1 to Day n. Data are indicated as mean values and standard error (SEM) or pooled values. Statistical analysis was performed by One-way ANOVA. Body weight reduction on Day 11 is calculated by −1*(% BW loss−% BW loss of vehicle group); Cumulative food intake reduction is calculated by −100*(cumulative food intake-cumulative food intake of vehicle)/cumulative food intake of vehicle.
As described in the above method, a daily dose of 30 nmol/kg of the unconjugated fusion proteins (i.e., MLC100, MLC023, MLC022, MLC020, MLC003, MLC124, MLC021, MLC019, MLC102) were administered to C57BL/6 for 10 days. Data were calculated as above method. Day 1 and Day 10 are first day and last day of administration.

[2] = Pharmacokinetic measurement in mouse, single sc dose 30 nmol/kg, plasma ELISA; settings: for Cmax: read-out: Cmax (nmol/L), single sc dose 30 nmol/kg; for exposure (Cmax and AUC) / half-life (T1/2): single sc 30 nmol/kg, in words; for AUC0-24 h / Terminal t1/2 / Tmax: single sc dose 30 nmol/kg

Molecule | Body weight reduction at 30 nmol/kg (% reduction compared to vehicle)(Day11) [1] [%] | Cumulative food intake reduction at 30 nmol/kg (% reduction compared to vehicle)(Day11) [1] [%] | in vivo efficacy (food intake and body weight reduction) ([1]; unconjugated fusion proteins, 30 nmol/kg daily 10 days, by linker length) | Cmax [2] [nmol/L] | exposure (Cmax and AUC) [2] | half-life (T1/2) [2] | AUC0-24 h [2] [µM·h] | Terminal t1/2 [2] [h] | Tmax [2] [h]
B1 | 23.0 | 48.6 | the most significant results among all the tested fusion proteins | 23.7 | much shorter half-lives and exposures than MLC002 and MLC004 | much shorter half-lives and exposures than MLC002 and MLC004 | 0.2639 | 4.8 | 4.0
B2 | 15.5 | 25.3 |  | 24.7 | much shorter half-lives and exposures than MLC002 and MLC004 | much shorter half-lives and exposures than MLC002 and MLC004 | 0.1074 | 3.5 | 1.0
B3 | 12.5 | 31.7 |  |  |  |  |  |  | 
B4 | 9.9 | 26.3 |  |  |  |  |  |  | 
B5 | 29.3 | 36.9 |  |  |  |  |  |  | 
B6 | 17.0 | 26.0 |  |  |  |  |  |  | 

— patent US11453711B2, “Fusion proteins of GLP-1 and GDF15 and conjugates thereof” (BEIJING QL BIOPHARMACEUTICAL CO., LTD., priority 2019, dated 2022)
